The values below come from PMC11880434 (Nature Communications, 2025).

The target in one test is T1, MbpR (Lactiplantibacillus plantarum, UniProt F9USQ8).
T1 sequence (F9USQ8 1-306): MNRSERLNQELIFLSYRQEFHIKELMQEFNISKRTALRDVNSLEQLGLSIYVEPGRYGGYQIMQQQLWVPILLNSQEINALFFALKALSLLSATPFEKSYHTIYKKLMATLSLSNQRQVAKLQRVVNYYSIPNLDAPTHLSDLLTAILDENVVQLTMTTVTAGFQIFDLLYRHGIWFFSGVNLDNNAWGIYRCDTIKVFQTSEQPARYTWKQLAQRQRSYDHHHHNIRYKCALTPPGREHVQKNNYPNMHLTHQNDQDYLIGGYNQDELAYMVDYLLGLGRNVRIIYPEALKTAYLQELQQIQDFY
The experiment in a line: ITC. In kind it is binding.

Test [1] has as its target mucin binding domain of MbpB (L. plantarum WCFS1). Kind of test: MST.
Test [2] addresses mucin binding domain of MbpA (L. plantarum WCFS1). Kind of test: MST.

For the molecule `Nc1nc2c(ncn2[C@@H]2O[C@@H]3CO[P@](=O)(O)O[C@H]4[C@@H](O)[C@H](n5cnc6c(=O)[nH]c(N)nc65)O[C@@H]4CO[P@](=O)(O)O[C@H]3[C@H]2O)c(=O)[nH]1` [c-di-GMP], on MbpR, the Kd came out at 220 nM.

With mucin (natural protein), the Kd in test [1] turned out to be 690 nM; in test [2] it was 530 nM.
